In patent publication US11814435B2, “Therapeutic antibodies and their uses” (PFIZER INC., priority 2015, dated 2023):

Assays:
[1] = biological target: T1, hBCMA (human BCMA) (Homo sapiens, UniProt Q02223); test: Kinetics and affinity of hBCMA/human IgG interactions by SPR (Bio-Rad Proteon XPR36); format: binding; conditions: huBCMA, 37° C.
T1 sequence (Q02223 1-184): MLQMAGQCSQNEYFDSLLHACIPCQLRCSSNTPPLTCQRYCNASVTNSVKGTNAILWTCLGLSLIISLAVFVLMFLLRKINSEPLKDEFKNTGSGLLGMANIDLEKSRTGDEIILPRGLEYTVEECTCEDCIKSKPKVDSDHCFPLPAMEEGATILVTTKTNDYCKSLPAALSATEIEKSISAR
Experimental: All experiments were performed on a Bio-Rad Proteon XPR36 surface Plasmon resonance biosensor (Bio-Rad, Hercules, Calif.). An array of anti-BCMA antibodies was prepared using an amine-coupling method on a Bio-Rad GLC Sensor Chip similar to that described in Abdiche, et al., Anal. Biochem. 411, 139-151 (2011). The analysis temperature for the immobilization was 25° C. and the running buffer was HBS-T+(10 mM HEPES, 150 mM NaCl, 0.05% Tween-20, pH 7.4). Channels were activated in the analyte (horizontal) direction by injecting a mixture of 1 mM ECD and 0.25 mM NHS for 3 minutes at a flow rate of 30 μL/min. IgGs were immobilized on the activated spots by injecting them in the ligand (vertical) direction at 20 μg/mL in 10 mM Acetate pH 4.5 buffer for 1.5 minutes at […]. The activated surfaces were blocked by injecting 1M ethanolamine, pH 8.5 in the analyte direction for 3 minutes at 30 μL/min.
The analysis temperature for the hBCMA binding analysis was 37° C. or 25° C. in a running buffer of HBS-T+, supplemented with 1 mg/mL BSA. A kinetic titration method was employed for the interaction analysis as described in Abdiche, et al. The hBCMA (human BCMA) analyte was injected in the analyte direction using a series of injections from low to high concentration. The concentrations used were 0.08 nM, 0.4 nM, 2 nM, 10 nM and 50 nM (a 5-membered series, with a 5-fold dilution factor and top concentration of 50 nM). The association time for a given analyte dilution was two minutes. Immediately after the 50 nM hBCMA injection, dissociation was monitored for 2 hours. Prior to the hBCMA analyte injections, buffer was injected 5 times using the same association and dissociation times at the hBCMA analyte cycles to prepare a buffer blank sensorgram for double-referencing purposes (double referencing as described in Myszka, J. Mol. Recognit. 12, 279-284 (1999).
The sensorgrams were double-referenced and fit to a 1:1 Langmuir with mass transport kinetic titration model in BIAevaluation Software version 4.1.1 (GE Lifesciences, Piscataway, N.J.). The sensorgrams and fits are shown in FIG. 1, and the kinetics and affinity parameters for various anti-BCMA antibodies of the present invention are shown in Tables 6A-6C.

[2] = tested on: cyBCMA; test: Kinetics and affinity of cyBCMA/human IgG interactions by SPR (Bio-Rad Proteon XPR36); format: binding, cynomolgus; conditions: 37° C.

| Molecule | ka (1/Ms) huBCMA @ 37° C. [1] | kd (1/s) huBCMA @37° C. [1] | ka (1/Ms) cyBCMA @ 37° C. [2] | kd (1/s) cyBCMA @37° C. [2] |
| --- | --- | --- | --- | --- |
| L3.PY/H2.QL: anti-BCMA antibody (antibody, V domains shown) VH: EVQLLESGGGLVQPGGSLRLSCAASGFTFGSYAMTWVRQAPGKGLEWVSAISGSGGNTFYADQLKGRFTISRDNSKNTLYLQMNSLRAEDTAVYYCARVSPIASGMDYWGQGTLVTVSS VL: EIVLTQSPGTLSLSPGERATLSCRASQSVSSSYLAWYQQKPGQAPRLLIYGASSRATGIPDRFSGSGSGTDFTLTISRLEPEDFAVYYCQHYPYPPSFTFGQGTKVEIK | 2.64e+06 M⁻¹ s⁻¹ | 0.00218 s⁻¹ | 2.05e+06 M⁻¹ s⁻¹ | 0.0126 s⁻¹ |
| L3.PY/H3.YA: anti-BCMA antibody (antibody, V domains shown) VH: EVQLLESGGGLVQPGGSLRLSCAASGFTFGSYAMTWVRQAPGKGLEWVSAISGSGGNTFYADSVKGRFTISRDNSKNTLYLQMNSLRAEDTAVYYCARVSPIYAGMDYWGQGTLVTVSS VL: EIVLTQSPGTLSLSPGERATLSCRASQSVSSSYLAWYQQKPGQAPRLLIYGASSRATGIPDRFSGSGSGTDFTLTISRLEPEDFAVYYCQHYPYPPSFTFGQGTKVEIK | 3.15e+06 M⁻¹ s⁻¹ | 0.00118 s⁻¹ | 2.87e+06 M⁻¹ s⁻¹ | 0.0054 s⁻¹ |
| L3.PY/H3.AE: anti-BCMA antibody (antibody, V domains shown) VH: EVQLLESGGGLVQPGGSLRLSCAASGFTFGSYAMTWVRQAPGKGLEWVSAISGSGGNTFYADSVKGRFTISRDNSKNTLYLQMNSLRAEDTAVYYCARVSPIAAEMDYWGQGTLVTVSS VL: EIVLTQSPGTLSLSPGERATLSCRASQSVSSSYLAWYQQKPGQAPRLLIYGASSRATGIPDRFSGSGSGTDFTLTISRLEPEDFAVYYCQHYPYPPSFTFGQGTKVEIK | 3.29e+06 M⁻¹ s⁻¹ | 0.00139 s⁻¹ | 2.82e+06 M⁻¹ s⁻¹ | 0.00504 s⁻¹ |
| L3.PY/L1.PS/H2.QR: anti-BCMA antibody (antibody, V domains shown) VH: EVQLLESGGGLVQPGGSLRLSCAASGFTFGSYAMTWVRQAPGKGLEWVSAISGSGGNTFYADQRKGRFTISRDNSKNTLYLQMNSLRAEDTAVYYCARVSPIASGMDYWGQGTLVTVSS VL: EIVLTQSPGTLSLSPGERATLSCRASQSVSSSYPSWYQQKPGQAPRLLIYGASSRATGIPDRFSGSGSGTDFTLTISRLEPEDFAVYYCQHYPYPPSFTFGQGTKVEIK | 3.97e+06 M⁻¹ s⁻¹ | 0.103 s⁻¹ | 525000 M⁻¹ s⁻¹ | 0.00067 s⁻¹ |
| L3.PY/L1.PS/H2.DY: anti-BCMA antibody (antibody, V domains shown) VH: EVQLLESGGGLVQPGGSLRLSCAASGFTFGSYAMTWVRQAPGKGLEWVSAIDYSGGNTFYADSVKGRFTISRDNSKNTLYLQMNSLRAEDTAVYYCARVSPIASGMDYWGQGTLVTVSS VL: EIVLTQSPGTLSLSPGERATLSCRASQSVSSSYPSWYQQKPGQAPRLLIYGASSRATGIPDRFSGSGSGTDFTLTISRLEPEDFAVYYCQHYPYPPSFTFGQGTKVEIK | 3.22e+06 M⁻¹ s⁻¹ | 0.00361 s⁻¹ | 1.9e+06 M⁻¹ s⁻¹ | 0.00378 s⁻¹ |
| L3.PY/L1.PS/H2.YQ: anti-BCMA antibody (antibody, V domains shown) VH: EVQLLESGGGLVQPGGSLRLSCAASGFTFGSYAMTWVRQAPGKGLEWVSAISYQGGNTFYADSVKGRFTISRDNSKNTLYLQMNSLRAEDTAVYYCARVSPIASGMDYWGQGTLVTVSS VL: EIVLTQSPGTLSLSPGERATLSCRASQSVSSSYPSWYQQKPGQAPRLLIYGASSRATGIPDRFSGSGSGTDFTLTISRLEPEDFAVYYCQHYPYPPSFTFGQGTKVEIK | 3.35e+06 M⁻¹ s⁻¹ | 0.0043 s⁻¹ | 2e+06 M⁻¹ s⁻¹ | 0.00374 s⁻¹ |
| L3.PY/L1.PS/H2.LT: anti-BCMA antibody (antibody, V domains shown) VH: EVQLLESGGGLVQPGGSLRLSCAASGFTFGSYAMTWVRQAPGKGLEWVSAISLTGGNTFYADSVKGRFTISRDNSKNTLYLQMNSLRAEDTAVYYCARVSPIASGMDYWGQGTLVTVSS VL: EIVLTQSPGTLSLSPGERATLSCRASQSVSSSYPSWYQQKPGQAPRLLIYGASSRATGIPDRFSGSGSGTDFTLTISRLEPEDFAVYYCQHYPYPPSFTFGQGTKVEIK | 3.4e+06 M⁻¹ s⁻¹ | 0.00465 s⁻¹ | 2.17e+06 M⁻¹ s⁻¹ | 0.00411 s⁻¹ |
| L3.PY/L1.PS/H2.HA: anti-BCMA antibody (antibody, V domains shown) VH: EVQLLESGGGLVQPGGSLRLSCAASGFTFGSYAMTWVRQAPGKGLEWVSAISHAGGNTFYADSVKGRFTISRDNSKNTLYLQMNSLRAEDTAVYYCARVSPIASGMDYWGQGTLVTVSS VL: EIVLTQSPGTLSLSPGERATLSCRASQSVSSSYPSWYQQKPGQAPRLLIYGASSRATGIPDRFSGSGSGTDFTLTISRLEPEDFAVYYCQHYPYPPSFTFGQGTKVEIK | 3.3e+06 M⁻¹ s⁻¹ | 0.0106 s⁻¹ | 1.45e+06 M⁻¹ s⁻¹ | 0.00269 s⁻¹ |
| L3.PY/L1.PS/H2.QL: anti-BCMA antibody (antibody, V domains shown) VH: EVQLLESGGGLVQPGGSLRLSCAASGFTFGSYAMTWVRQAPGKGLEWVSAISGSGGNTFYADQLKGRFTISRDNSKNTLYLQMNSLRAEDTAVYYCARVSPIASGMDYWGQGTLVTVSS VL: EIVLTQSPGTLSLSPGERATLSCRASQSVSSSYPSWYQQKPGQAPRLLIYGASSRATGIPDRFSGSGSGTDFTLTISRLEPEDFAVYYCQHYPYPPSFTFGQGTKVEIK | 1.52e+07 M⁻¹ s⁻¹ | 0.314 s⁻¹ | 657000 M⁻¹ s⁻¹ | 0.000636 s⁻¹ |
| L3.PY/L1.PS/H3.YA: anti-BCMA antibody (antibody, V domains shown) VH: EVQLLESGGGLVQPGGSLRLSCAASGFTFGSYAMTWVRQAPGKGLEWVSAISGSGGNTFYADSVKGRFTISRDNSKNTLYLQMNSLRAEDTAVYYCARVSPIYAGMDYWGQGTLVTVSS VL: EIVLTQSPGTLSLSPGERATLSCRASQSVSSSYPSWYQQKPGQAPRLLIYGASSRATGIPDRFSGSGSGTDFTLTISRLEPEDFAVYYCQHYPYPPSFTFGQGTKVEIK | 3.07e+06 M⁻¹ s⁻¹ | 0.00905 s⁻¹ | 1.77e+06 M⁻¹ s⁻¹ | 0.00998 s⁻¹ |
| L3.PY/L1.PS/H3.AE: anti-BCMA antibody (antibody, V domains shown) VH: EVQLLESGGGLVQPGGSLRLSCAASGFTFGSYAMTWVRQAPGKGLEWVSAISGSGGNTFYADSVKGRFTISRDNSKNTLYLQMNSLRAEDTAVYYCARVSPIAAEMDYWGQGTLVTVSS VL: EIVLTQSPGTLSLSPGERATLSCRASQSVSSSYPSWYQQKPGQAPRLLIYGASSRATGIPDRFSGSGSGTDFTLTISRLEPEDFAVYYCQHYPYPPSFTFGQGTKVEIK | 3.14e+06 M⁻¹ s⁻¹ | 0.00146 s⁻¹ | 2.46e+06 M⁻¹ s⁻¹ | 0.00413 s⁻¹ |
| L3.PY/L1.PS/H3.TAQ: anti-BCMA antibody (antibody, V domains shown) VH: EVQLLESGGGLVQPGGSLRLSCAASGFTFGSYAMTWVRQAPGKGLEWVSAISGSGGNTFYADSVKGRFTISRDNSKNTLYLQMNSLRAEDTAVYYCTRVSPIAAQMDYWGQGTLVTVSS VL: EIVLTQSPGTLSLSPGERATLSCRASQSVSSSYPSWYQQKPGQAPRLLIYGASSRATGIPDRFSGSGSGTDFTLTISRLEPEDFAVYYCQHYPYPPSFTFGQGTKVEIK | 3.25e+06 M⁻¹ s⁻¹ | 0.00246 s⁻¹ | 2.58e+06 M⁻¹ s⁻¹ | 0.00552 s⁻¹ |
